Here are results for 5 molecules from patent publication US20200109188A1 (AstraZeneca / MedImmune, published 2020).

Numbering of substitutions follows the chain as printed.

The labels stand for the following.
B1: Antibody 12 (antibody, V domains shown)
VH: QVQLQQSGPGLVKPSQTLSLTCAISGDSVSSYNAVWNWIRQSPSRGLEWLGRTYYRSGWYNDYAESVKSRITINPDTSKNQFSLQLNSVTPEDTAVYYCARSGHITVFGVNVDAFDMWGQGTMVTVSS
VL: DIQMTQSPSSLSASVGDRVTITCRTSQSLSSYTHWYQQKPGKAPKLLIYAASSRGSGVPSRFSGSGSGTDFTLTISSLQPEDFATYYCQQSRTFGQGTKVEIK
B2: Antibody 11 (antibody, V domains shown)
VH: B1 VH
VL: B1 VL with G55L
B3: Antibody 13 (antibody, V domains shown)
VH: B1 VH
VL: B1 VL with T33D, G55L
B4: Antibody 14 (antibody, V domains shown)
VH: B1 VH with Y32N, G58K, M123T
VL: B1 VL with G55L
B5: Antibody 15 (antibody, V domains shown)
VH: B1 VH with Y32N, G58K, M123T
VL: B1 VL

Chain of HA subtype H14 (A/mallard/Astrakhan/263/82 (H14N5)) on HEK cells (P26136 18-568): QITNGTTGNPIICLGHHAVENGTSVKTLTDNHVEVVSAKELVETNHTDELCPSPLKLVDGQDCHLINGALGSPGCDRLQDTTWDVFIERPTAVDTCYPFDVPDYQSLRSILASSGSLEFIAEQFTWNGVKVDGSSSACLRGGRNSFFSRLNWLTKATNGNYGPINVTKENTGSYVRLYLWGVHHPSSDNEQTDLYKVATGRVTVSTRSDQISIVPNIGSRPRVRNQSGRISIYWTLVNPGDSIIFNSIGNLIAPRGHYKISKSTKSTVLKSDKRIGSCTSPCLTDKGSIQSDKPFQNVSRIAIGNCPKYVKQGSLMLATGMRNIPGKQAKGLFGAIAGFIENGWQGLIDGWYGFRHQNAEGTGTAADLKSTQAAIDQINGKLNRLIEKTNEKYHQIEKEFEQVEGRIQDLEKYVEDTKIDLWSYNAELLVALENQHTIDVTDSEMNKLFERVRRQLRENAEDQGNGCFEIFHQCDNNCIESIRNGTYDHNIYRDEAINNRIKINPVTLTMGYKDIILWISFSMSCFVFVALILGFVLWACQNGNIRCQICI
Chain of HA subtype H12 (A/duck/Alberta/60/76 (H12N5)) on HEK cells (P03446 17-564): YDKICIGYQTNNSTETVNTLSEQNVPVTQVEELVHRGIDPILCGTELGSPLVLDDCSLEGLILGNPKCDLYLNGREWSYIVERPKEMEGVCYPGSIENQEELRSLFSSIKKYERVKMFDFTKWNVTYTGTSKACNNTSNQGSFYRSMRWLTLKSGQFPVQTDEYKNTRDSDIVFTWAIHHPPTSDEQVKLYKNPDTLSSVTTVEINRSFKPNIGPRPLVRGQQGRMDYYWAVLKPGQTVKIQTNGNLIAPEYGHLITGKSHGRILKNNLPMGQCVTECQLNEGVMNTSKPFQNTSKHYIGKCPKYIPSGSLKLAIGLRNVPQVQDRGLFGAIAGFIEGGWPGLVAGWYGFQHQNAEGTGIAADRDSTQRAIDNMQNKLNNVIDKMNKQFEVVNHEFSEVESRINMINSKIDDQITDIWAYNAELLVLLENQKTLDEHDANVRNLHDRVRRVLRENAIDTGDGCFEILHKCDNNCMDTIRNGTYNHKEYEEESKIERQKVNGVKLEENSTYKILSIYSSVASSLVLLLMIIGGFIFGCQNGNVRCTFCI
Chain of HA subtype H4 (A/duck/Czechoslovakia/56 (H4N6)) on HEK cells (P19696 17-564): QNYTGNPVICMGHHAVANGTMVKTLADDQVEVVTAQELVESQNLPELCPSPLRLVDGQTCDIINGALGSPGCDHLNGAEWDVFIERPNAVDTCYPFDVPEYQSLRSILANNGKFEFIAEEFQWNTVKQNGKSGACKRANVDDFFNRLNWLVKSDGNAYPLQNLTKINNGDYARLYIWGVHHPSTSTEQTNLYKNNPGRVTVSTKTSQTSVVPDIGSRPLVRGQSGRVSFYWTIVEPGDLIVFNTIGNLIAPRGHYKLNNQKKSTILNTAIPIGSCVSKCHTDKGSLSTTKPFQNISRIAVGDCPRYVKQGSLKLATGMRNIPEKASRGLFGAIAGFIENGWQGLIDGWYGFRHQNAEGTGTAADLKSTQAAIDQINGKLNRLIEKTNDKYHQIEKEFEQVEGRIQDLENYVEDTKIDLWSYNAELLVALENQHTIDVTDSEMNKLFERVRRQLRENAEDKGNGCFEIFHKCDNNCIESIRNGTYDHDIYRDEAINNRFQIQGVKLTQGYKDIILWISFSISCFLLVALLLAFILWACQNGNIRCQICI

The first assay has as its target HA subtype H14 (A/mallard/Astrakhan/263/82 (H14N5)) on HEK cells (influenza A virus, UniProt P26136 18-568). The experiment in a line: flow cytometry, HA-transfected HEK cells, 5 ug/ml antibody. (In general: In flow cytometry, cells or beads pass a laser one at a time.)
With B1, the binding result is recorded as “binds”.

The target of a further assay is HA subtype H13 (A/gull/Maryland/704/77 (H13N6)) on HEK cells (influenza A virus, UniProt P13103 19-566). The assay is described as above.
Chain of HA subtype H13 (A/gull/Maryland/704/77 (H13N6)) on HEK cells (P13103 19-566): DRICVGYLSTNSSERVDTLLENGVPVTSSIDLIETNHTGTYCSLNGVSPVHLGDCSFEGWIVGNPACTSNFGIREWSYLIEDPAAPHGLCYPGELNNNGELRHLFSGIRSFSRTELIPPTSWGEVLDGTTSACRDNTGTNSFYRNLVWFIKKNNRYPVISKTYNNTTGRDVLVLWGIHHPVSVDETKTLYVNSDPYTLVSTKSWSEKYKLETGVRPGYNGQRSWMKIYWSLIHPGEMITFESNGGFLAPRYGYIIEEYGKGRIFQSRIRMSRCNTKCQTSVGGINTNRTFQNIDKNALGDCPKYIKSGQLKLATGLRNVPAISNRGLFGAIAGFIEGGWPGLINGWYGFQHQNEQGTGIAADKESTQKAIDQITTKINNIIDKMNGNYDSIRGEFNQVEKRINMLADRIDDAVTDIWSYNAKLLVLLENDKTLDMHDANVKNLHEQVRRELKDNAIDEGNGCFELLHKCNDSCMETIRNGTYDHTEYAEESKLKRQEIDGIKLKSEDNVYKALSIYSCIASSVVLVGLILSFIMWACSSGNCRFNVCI
As for B1, the binding result was “binds”.

The target in another assay is HA subtype H10 (A/chicken/Germany/N49 (H10N7)) on HEK cells (influenza A virus, UniProt P12581 17-561). The assay is described as above.
Chain of HA subtype H10 (A/chicken/Germany/N49 (H10N7)) on HEK cells (P12581 17-561): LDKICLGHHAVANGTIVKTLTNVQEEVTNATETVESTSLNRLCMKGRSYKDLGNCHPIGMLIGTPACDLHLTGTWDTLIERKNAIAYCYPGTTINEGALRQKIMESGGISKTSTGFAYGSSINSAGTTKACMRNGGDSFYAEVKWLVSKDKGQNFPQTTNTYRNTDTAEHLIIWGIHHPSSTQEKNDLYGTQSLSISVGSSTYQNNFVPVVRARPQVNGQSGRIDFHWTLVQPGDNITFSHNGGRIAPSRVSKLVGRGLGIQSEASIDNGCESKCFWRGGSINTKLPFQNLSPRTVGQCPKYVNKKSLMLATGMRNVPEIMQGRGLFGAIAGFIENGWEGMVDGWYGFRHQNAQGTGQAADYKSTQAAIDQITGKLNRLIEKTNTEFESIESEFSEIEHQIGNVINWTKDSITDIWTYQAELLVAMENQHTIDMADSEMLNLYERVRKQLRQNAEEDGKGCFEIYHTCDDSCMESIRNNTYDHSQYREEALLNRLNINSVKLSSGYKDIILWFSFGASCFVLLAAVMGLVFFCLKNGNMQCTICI
In the case of B1, the binding result was “binds”.

Another assay concerns the target HA subtype H4 (A/duck/Czechoslovakia/56 (H4N6)) on HEK cells (influenza A virus, UniProt P19696 17-564). The assay is described as above.
As to B1, the binding result was “binds”.

A further assay has as its target HA subtype H12 (A/duck/Alberta/60/76 (H12N5)) on HEK cells (influenza A virus, UniProt P03446 17-564). The assay is described as above.
Consider B1, for which the binding result is on record as “binds”.

Another assay deals with HA of ca A/Brit. Columbia/CN-6/04 (H7N3-LP) virus (influenza A virus). Put plainly: cell-based or functional assay.
Turning to B2, the “Neutralization IC50, H7-BC04” value came to 0.71 µg/mL.

Turning to B3, the “Neutralization IC50, H7-BC04” value turned out to be 0.96 µg/mL.

On to B4, for which the “Neutralization IC50, H7-BC04” value came to 0.86 µg/mL.

Regarding B5, the “Neutralization IC50, H7-BC04” value was 1.25 µg/mL.

For the molecule B1, the “Neutralization IC50, H7-BC04” value was determined as 0.78 µg/mL.

A further assay concerns the target HA of ca A/mallard/Alberta/89/85 (H6N2) virus (influenza A virus). Put plainly: cell-based or functional assay.
As for B2, the “Neutralization IC50, H6-AB85” value amounted to 0.24 µg/mL.

Consider B3, for which the “Neutralization IC50, H6-AB85” value came to 0.29 µg/mL.

With B4, the “Neutralization IC50, H6-AB85” value is 0.26 µg/mL.

For B5, the “Neutralization IC50, H6-AB85” value is 0.19 µg/mL.

With B1, the “Neutralization IC50, H6-AB85” value is 0.32 µg/mL.

The target of another assay is HA of ca A/Japan/57 (H2N2) virus (influenza A virus). The experiment in a line: cell-based or functional assay.
For B2, the “Neutralization IC50, H2-JP57” value came out at 0.31 µg/mL.

As for B3, the “Neutralization IC50, H2-JP57” value came out at 0.47 µg/mL.

Consider B4, for which the “Neutralization IC50, H2-JP57” value is 0.67 µg/mL.

Take B5: the “Neutralization IC50, H2-JP57” value was 0.33 µg/mL.

As for B1, the “Neutralization IC50, H2-JP57” value was 0.35 µg/mL.

Another assay has as its target HA of ca A/chicken/Hong Kong/G9/97 (H9N2) virus (influenza A virus). The experiment in a line: cell-based or functional assay.
Regarding B2, the “Neutralization IC50, H9-HK97” value came to 0.36 µg/mL.

On to B3, for which the “Neutralization IC50, H9-HK97” value came to 0.29 µg/mL.

For the molecule B4, the “Neutralization IC50, H9-HK97” value turned out to be 0.44 µg/mL.

Take B5: the “Neutralization IC50, H9-HK97” value was determined as 0.35 µg/mL.

For B1, the “Neutralization IC50, H9-HK97” value amounted to 0.31 µg/mL.

In another assay the target is HA of ca A/Vietnam/1203/04 (H5N1) virus (influenza A virus). Put plainly: cell-based or functional assay.
Regarding B2, the “Neutralization IC50, H5-VM04” value worked out at 0.57 µg/mL.

For B3, the “Neutralization IC50, H5-VM04” value stood at 0.56 µg/mL.

Take B4: the “Neutralization IC50, H5-VM04” value stood at 0.33 µg/mL.

Take B5: the “Neutralization IC50, H5-VM04” value turned out to be 0.28 µg/mL.

B1: the “Neutralization IC50, H5-VM04” value worked out at 0.31 µg/mL.

For a further assay, the target named is HA of ca A/teal/Hong Kong/W312/97 (H6N1) virus (influenza A virus). The experiment in a line: cell-based or functional assay.
As for B2, the “Neutralization IC50, H6-HK97” value stood at 0.4 µg/mL.

For B3, the “Neutralization IC50, H6-HK97” value turned out to be 0.55 µg/mL.

With B4, the “Neutralization IC50, H6-HK97” value came to 0.26 µg/mL.

As to B5, the “Neutralization IC50, H6-HK97” value came out at 0.33 µg/mL.

As for B1, the “Neutralization IC50, H6-HK97” value was found to be 0.45 µg/mL.

The target in the next assay is HA of ca A/Anhui/1/13 (H7N9) virus (influenza A virus). The experiment in a line: cell-based or functional assay.
In the case of B4, the “Neutralization IC50, H7-ANU13” value was 2.12 µg/mL.

Consider B1, for which the “Neutralization IC50, H7-ANU13” value turned out to be 2.56 µg/mL.

The target of the next assay is HA of ca A/Hong Kong/213/03 (H5N1) virus (influenza A virus). Put plainly: cell-based or functional assay.
As for B2, the “Neutralization IC50, H5-HK03” value amounted to 0.21 µg/mL.

For the molecule B3, the “Neutralization IC50, H5-HK03” value was 0.17 µg/mL.

With B4, the “Neutralization IC50, H5-HK03” value came out at 0.21 µg/mL.

For the molecule B5, the “Neutralization IC50, H5-HK03” value turned out to be 0.05 µg/mL.

B1: the “Neutralization IC50, H5-HK03” value stood at 0.17 µg/mL.

A further assay addresses HA of ca A/swine/Missouri/06 (H2N3) virus (influenza A virus). Put plainly: cell-based or functional assay.
Regarding B2, the “Neutralization IC50, H2-MO06” value came to 0.6 µg/mL.

B3: the “Neutralization IC50, H2-MO06” value was 0.57 µg/mL.

In the case of B4, the “Neutralization IC50, H2-MO06” value amounted to 0.65 µg/mL.

As for B5, the “Neutralization IC50, H2-MO06” value was determined as 0.83 µg/mL.

For the molecule B1, the “Neutralization IC50, H2-MO06” value came out at 0.53 µg/mL.

The target of the next assay is HA of A/New Jersey/8/76 (H1N1) virus (influenza A virus). Put plainly: cell-based or functional assay.
Take B2: the “Neutralization IC50, H1-NJ76” value was 0.13 µg/mL.

With B3, the “Neutralization IC50, H1-NJ76” value worked out at 0.12 µg/mL.

Consider B4, for which the “Neutralization IC50, H1-NJ76” value came to 0.11 µg/mL.

Turning to B5, the “Neutralization IC50, H1-NJ76” value is 0.25 µg/mL.

Turning to B1, the “Neutralization IC50, H1-NJ76” value came to 0.12 µg/mL.

The target of the next assay is HA of ca A/Netherlands/219/03 (H7N7) virus (influenza A virus). The experiment in a line: cell-based or functional assay.
As to B2, the “Neutralization IC50, H7-NLD03” value was 0.94 µg/mL.

Consider B3, for which the “Neutralization IC50, H7-NLD03” value was found to be 2.45 µg/mL.

Turning to B4, the “Neutralization IC50, H7-NLD03” value was found to be 1.16 µg/mL.

In the case of B5, the “Neutralization IC50, H7-NLD03” value came to 1.3 µg/mL.

Take B1: the “Neutralization IC50, H7-NLD03” value was determined as 0.83 µg/mL.
